# Data taken from patent US20140295012A1, “LATENT HUMAN IMMUNODEFICIENCY VIRUS REACTIVATION” (priority 2011, published 2014).
# *1 amine or outer side, *2 acyl side, *3 side chain or, on linkers, in order; H or OH if unused. Where a SMILES comes first, the peptide text is derived from it. Bridges are numbered along the chain shown (N, C = ends). Roman numbers before positions name the chains, in order. [ ]: non-standard residue; d: D form. Actinocin(9to1) = Cc1c2oc3c(C)ccc(C(=O)[*:1])c3nc-2c(C(=O)[*:2])c(N)c1=O; NMeV = CN[C@H](C(=O)O)C(C)C; Sar = CNCC(=O)O
# What was measured:
# Assay type in all cases: cell-based
# [1] = test system: latently HIV-1 infected J89GFP T cells; experiment: HIV-1 reactivation / priming in latently HIV-1 infected J89GFP T cells (GFP, flow cytometry, HTS)
# Description: Flow cytometry. Infection levels in the cell cultures were monitored by flow cytometric (FCM) analysis of GFP expression. […] Cell sorting experiments were performed using a FACSAria™ Flow Cytometer (Becton&Dickinson). Data analysis was performed using either CellQuest (Becton&Dickinson) or GUAVA Express (GUAVA Technologies, Inc.).
# [2] = test system: HIV-1 replication in PBMCs; experiment: HIV-1 replication in PBMCs infected with GFP reporter virus; conditions: saturating HRF levels, 5 days post infection
# Description: FIGS. 8A-8C show HRF induced NF-κB and cytokine expression in peripheral blood mononuclear cells (PBMCs). […] PBMCs were activated with optimal concentrations of either PHA-L or with HRF. Cells were harvested at the indicated time points. Nuclear extracts were generated and NF-κB p50 activity and NF-κB p65 activity were determined using the TransAM™ NF-κB family ELISA kit (Active Motif). […] PBMCs from four different healthy donors were stimulated with an anti-CD3/CD28 antibody combination and infected with a GFP reporter virus on day 4 post-stimulation. HIV-1 replication was monitored in the absence (C) or presence of HRF for 5 days and the achieved HIV-1 infection levels were determined by flow cytometric analysis for the percentage of EGFP-positive cells. All infections were normalized to the infection level in the untreated culture and the histogram represents the mean infection levels obtained in 4 donor cultures±standard deviation. […] PBMCs from four healthy donors were left unstimulated (C) or stimulated with an anti-CD3/CD28 antibody combination as a positive control or were stimulated with a concentration of HRF that would trigger maximum HIV-1 reactivation in CA5 T cells. Culture supernatants were collected after 24 hours and the concentrations of a panel of cytokines was determined by BioPlex analysis. […]
# [3] = test system: latently HIV-1 infected reporter T cell lines
# Description: FIGS. 1A and 1B show culture supernatants from Massilia timonae reactivate latent HIV-1 infection. […] Untreated control cells and HRF-treated cells were subjected to flow cytometric analysis to determine enhanced green fluorescent protein (EGFP) expression as a direct and quantitative marker of HIV-1 expression 24 hours post stimulation. FSC/SSC dot plots are represented to evaluate cell viability as a function of changes in the FSC (cell size)-SSC (granularity) phenotype of the cells. FIG. 1B is a histogram showing the reproducibility of the observed HIV-1 reactivation. Three independent preparations of HRF (batches HRF1-3) on four different latently infected T cell lines (5F3, 8E12, CA5 and 12D4) were tested. The percentage of EGFP positive cells following stimulation is depicted in the histogram. Cell culture supernatants of Pseudomonas aeruginosa cultures, grown under similar conditions, were used as specificity controls.
# Infection levels in the cell cultures were monitored by flow cytometric analysis of EGFP expression. Flow cytometric analysis was performed on a GUAVA EasyCyte (Millipore; Billerica, Mass.), or a LSRII (Becton & Dickinson; Franklin Lakes, N.J.).
# Jurkat T cells = experiment: Protection of Jurkat T cells from poly (I:C) induced apoptosis (viability); conditions: compared with Salmonella typhimurium flagellin
# Description: High concentrations of poly (I:C) trigger apoptosis in Jurkat cells and reduce cell viability. Viability of control cells (C) was compared to the viability of cell cultures treated with poly (I:C) (10 μg/ml) and increasing amounts of either flagellin or HRF.
# NF-κB p50 = NF-κB p50 activity in nuclear extracts of latent CA5 T cells (TransAM NF-κB family ELISA)
# Description: FIGS. 7A-7D are graphs showing the kinetics of HRF-mediated induction of NF-κB activity. Jurkat or latently HIV-1 infected CA5 T cells were stimulated with optimal concentrations of PMA and HRF, and cells were harvested at the indicated time points. Nuclear extracts were generated and (FIGS. 7A and 7C) NF-κB p50 activity and (FIGS. 7B and 7D) NF-κB p65 activity were determined using the TransAM™ NF-κB family ELISA kit (Active Motif; Carlsbad, Calif.).
# Cells were grown in RPMI medium supplemented with 10% FBS and 1% PSG to approximately 5×10^5 cells per milliliter. Cells were centrifuged and resuspended in fresh pre-warmed medium. PMA, HRF and/or JNKiV were added immediately at the indicated concentrations. The final cell density for the assay was 1×10^6 cells per milliliter. The culture flasks were kept in a humidified CO2 incubator at 37° C. For each time point, a 1 ml cell suspension was removed and immediately centrifuged at full speed in a tabletop centrifuge for 30 seconds. […] The protein concentration of the extracts was determined by using the BCA protein assay Kit (ThermoFisher). […] The absorbance at 595 nm was determined using a 96 well plate reader (Synergy HT, BIO-Tek; Winooski, Vt.).
# NF-κB activity in nuclear extracts was quantified using the TransAM™ NF-κB family ELISA kit from Active Motif, Inc. (Carlsbad, Calif.) according to the manufacturer's instructions.
# cell culture = experiment: Cytotoxicity in cell culture and therapeutic index
# Description: The HRFs provided herein show little to no cytotoxicity and have a therapeutic index greater than 300. A therapeutic index is a comparison of the amount of a therapeutic agent that causes a therapeutic effect to the amount that causes death. The therapeutic index is a ratio given by the lethal dose of a drug or agent for 50% of the population (LD50) divided by the minimum effective therapeutic dose for 50% of the population (ED50). A high therapeutic index is preferable.
Molecule,priming of latent HIV-1 infection for reactivation ([1]; in combination with sub-optimal TNF-α),HIV-1 reactivating capacity by itself ([1]; relative to latently infected control cells),HIV-1 replication [2],cell viability (flow cytometric FSC/SSC analysis) ([3]; culture supernatant on latently infected reporter T cell lines),"HIV-1 reactivation ([3]; four latently infected reporter T cell lines, culture supernatant)",protection from induced apoptosis (Jurkat T cells),NF-κB p50 activity after the first 4 hours (NF-κB p50),cytotoxicity in cell culture (cell culture),therapeutic index (cell culture; LD50/ED50)
"Cc1c2oc3c(C)ccc(C(=O)N[C@@H]4C(=O)N[C@H](C(C)C)C(=O)N5CCC[C@H]5C(=O)N(C)CC(=O)N(C)[C@@H](C(C)C)C(=O)O[C@@H]4C)c3nc-2c(C(=O)N[C@@H]2C(=O)N[C@H](C(C)C)C(=O)N3CCC[C@H]3C(=O)N(C)CC(=O)N(C)[C@@H](C(C)C)C(=O)O[C@@H]2C)c(N)c1=O [dactinomycin] (I: T[dV]P[Sar][NMeV] / II: T[dV]P[Sar][NMeV]; ester I:1-I:C, II:1-II:C; linker I:N-II:N via Actinocin(9to1))",potently primed latent HIV-1 infection for reactivation,did not exhibit HIV-1 reactivating capacity by itself,,,,,,,
"HRF: flagellin polypeptide from Massilia timonae (SEQ ID NO:10), used as bacterial culture supernatant (protein) MASVINTNVPSLNSQRNLSTSQAQLNTSIQRLSSGMRINSAKDDAAGLAISDRMNSQIKGMTQATRNANDGVSMAQTAEGALSSSGDILQRIRELAVQSSNSSNSASDRKALQTEVTQLSSELNRIANTTEFNGQKLMDGTLGTANFQVGANAGQLISMTGANFNTSVYGNNQIAGDAAKAAATTSAAATGAFTISGYLGTSAAINTTDADTAKTIAASINNVTGDTGVTATARTDSFLKSAGGAHTMSLASDNSGTGEAVDISFTVGDGGDTADDYAAAISAFNAQTAKTGVTAEYDAVEKGLKLTNSAGENISLTNKAGSADIDMDTYAADGALMASALTLEAGDVGVANGRVTMDSEKSFSVAEGTDTGFELADSSALKSVAKIDISDFEGAQEAIKVADAALSAVNSQRAEYGALQSRFESAISNLSSSTENLSASRSRIVDTDFAAETAKMTRGQILQQAGTSMLAQANSLPNGVLSLLRG",,,not significantly increased,No effect on cell viability,efficiently reactivate latent HIV-1 infection,greater efficacy,stabilizes at an elevated level,far less cytotoxic,> 300
